Broadly, the stoichiometry N is the number of molecules, sites or subunits per partner or assembly.

We go through six substances from PMC12856111.

Targets include mFASΔTE G2054F (mouse) (UniProt P19096); mFASΔTE S2014A (mouse) (UniProt P19096); mFASΔTE T2076F (mouse) (UniProt P19096); mFASΔTE Y2027F (mouse) (UniProt P19096).
Experiment in all cases: SEC; Superdex 200 Increase 10/300 GL, 4°C; mFAS samples incubated at 37°C for 1 h beforehand to promote dimerization; oligomeric state read from the elution volume
(In general: In gel filtration, larger molecules generally elute earlier.)

Assay [1] has as its target mFASΔTE (metazoan fatty acid synthase lacking the TE domain) (mouse) (UniProt P19096).
Assay [2] addresses mFASΔTE S2014A/Y2027F (mouse) (UniProt P19096).

In assay [1], “mFASΔTE (metazoan fatty acid synthase lacking the TE domain) (from UniProt P19096 1-2504) (enzyme)” registered a stoichiometry N of 2.
Turning to “mFASΔTE G2054F (from UniProt P19096 1-2504) (enzyme)”, the stoichiometry N with mFASΔTE G2054F (mouse) stood at 2.
For “mFASΔTE S2014A (from UniProt P19096 1-2504) (enzyme)”, in the assay with mFASΔTE S2014A (mouse), the stoichiometry N is 2.
In the case of “mFASΔTE S2014A/Y2027F (from UniProt P19096 1-2504) (enzyme)”, the stoichiometry N in assay [2] is 2.
“mFASΔTE T2076F (from UniProt P19096 1-2504) (enzyme)” displayed a stoichiometry N with mFASΔTE T2076F (mouse) of 2.
In the assay with mFASΔTE Y2027F (mouse), “mFASΔTE Y2027F (from UniProt P19096 1-2504) (enzyme)” showed a stoichiometry N of 2.
